The supplement of paper PMC11246515
± gives the standard deviation of the averaged measurements.

Assay: total protein half-life in vivo (active degradation + dilution); higher = more stable protein
[1] = E. coli NCM3722 delta-clpP, growth: N-lim chemostat, doubling time 6 h
[2] = wild type E. coli NCM3722, growth: C-lim chemostat, doubling time 3 h
[3] = wild type E. coli NCM3722, growth: C-lim chemostat, doubling time 6 h
[4] = wild type E. coli NCM3722, growth: C-lim chemostat, doubling time 12 h
[5] = E. coli NCM3722 delta-clpP delta-lon delta-hslV, growth: N-lim chemostat, doubling time 6 h
[6] = E. coli NCM3722 delta-hslV, growth: N-lim chemostat, doubling time 6 h
[7] = E. coli NCM3722 delta-lon, growth: N-lim chemostat, doubling time 6 h
[8] = E. coli NCM3722 delta-smpB, growth: N-lim chemostat, doubling time 6 h
[9] = wild type E. coli NCM3722, growth: N-lim chemostat, doubling time 6 h
[10] = wild type E. coli NCM3722, growth: N-lim chemostat, doubling time 12 h
[11] = wild type E. coli NCM3722, growth: P-lim chemostat, doubling time 6 h
[12] = wild type E. coli NCM3722, growth: P-lim chemostat, doubling time 12 h

Row | Sequence | total protein half-life in vivo [1] [h] | total protein half-life in vivo [2] [h] | total protein half-life in vivo [3] [h] | total protein half-life in vivo [4] [h] | total protein half-life in vivo [5] [h] | total protein half-life in vivo [6] [h] | total protein half-life in vivo [7] [h] | total protein half-life in vivo [8] [h] | total protein half-life in vivo [9] [h] | total protein half-life in vivo [10] [h] | total protein half-life in vivo [11] [h] | total protein half-life in vivo [12] [h]
1 | MSLAKDNIWKLLAPLVVMGVMFLIPVPDGMPPQAWHYFAVFVAMIVGMILEPIPATAISFIAVTICVIGSNYLLFDAKELADPAFNAQKQALKWGLAGFSSTTVWLVFGAFIFALGYEVSGLGRRIALFLVKFMGKRTLTLGYAIVIIDILLAPFTPSNTARTGGTVFPVIKNLPPLFKSFPNDPSARRIGGYLMWMMVISTSLSSSMFVTGAAPNVLGLEFVSKIAGIQISWLQWFLCFLPVGVILLIIAPWLSYVLYKPEITHSEEVATWAGDELKTMGALTRREWTLIGLVLLSLGLWVFGSEVINATAVGLLAVSLMLALHVVPWKDITRYNSAWNTLVNLATLVVMANGLTRSGFIDWFAGTMSTHLEGFSPNATVIVLVLVFYFAHYLFASLSAHTATMLPVILAVGKGIPGVPMEQLCILLVLSIGIMGCLTPYATGPGVIIYGCGYVKSKDYWRLGAIFGVIYISMLLLVGWPILAMWN [P0AE74] | 7.68 | – | – | – | – | – | – | – | – | – | – | –
2 | MKIITCYKCVPDEQDIAVNNADGSLDFSKADAKISQYDLNAIEAACQLKQQAAEAQVTALSVGGKALTNAKGRKDVLSRGPDELIVVIDDQFEQALPQQTASALAAAAQKAGFDLILCGDGSSDLYAQQVGLLVGEILNIPAVNGVSKIISLTADTLTVERELEDETETLSIPLPAVVAVSTDINSPQIPSMKAILGAAKKPVQVWSAADIGFNAEAAWSEQQVAAPKQRERQRIVIEGDGEEQIAAFAENLRKVI | – | 2.81 ± 0.21 | 5.04 | 10.2 | – | – | – | – | – | – | – | –
3 | MPRLASAVLPLCSQHPGQCGLFPLEKSLDAFAARYRLAEMAEHTLDVQYYIWQDDMSGRLLFSALLAAAKRGVRVRLLLDDNNTPGLDDILRLLDSHPRIEVRLFNPFSFRLLRPLGYITDFSRLNRRMHNKSFTVDGVVTLVGGRNIGDAYFGAGEEPLFSDLDVMAIGPVVEDVADDFARYWYCKSVSPLQQVLDVPEGEMADRIELPASWHNDAMTHRYLRKMESSPFINHLVDGTLPLIWAKTRLLSDDPAKGEGKAKRHSLLPQRLFDIMGSPSERIDIISSYFVPTRAGVAQLLRMVRKGVKIAILTNSLAANDVAVVHAGYARWRKKLLRYGVELYELKPTREQSSTLHDRGITGNSGASLHAKTFSIDGKTVFIGSFNFDPRSTLLNTEMGFVIESETLAQLIDKRFIQSQYDAAWQLRLDRWGRINWVDRHAKKEIILKKEPATSFWKRVMVRLASILPVEWLL | 5.95 ± 0.048 | 2.78 ± 0.11 | 5.38 ± 0.64 | – | 5.59 ± 0.72 | 5.92 ± 1.4 | 5.31 ± 0.46 | 5.1 ± 0.35 | 4.78 ± 0.52 | 11.1 ± 0.75 | 5.59 ± 0.044 | –
4 | MRTTSFAKVAALCGLLALSGCASKITQPDKYSGFLNNYSDLKETTSATGKPVLRWVDPSFDQSKYDSIVWNPITYYPVPKPSTQVGQKVLDKILNYTNTEMKEAIAQRKPLVTTAGPRSLIFRGAITGVDTSKEGLQFYEVVPVALVVAGTQMATGHRTMDTRLYFEGELIDAATNKPVIKVVRQGEGKDLNNESTPMAFENIKQVIDDMATDATMFDVNKK | – | 3.33 ± 0.073 | 6.02 ± 0.91 | 10.3 ± 0.9 | 5.89 ± 0.069 | 6.47 ± 0.16 | – | 5.98 ± 0.26 | 6.07 ± 0.31 | 12.8 ± 0.57 | 5.82 ± 0.2 | 13 ± 0.29
5 | MTDHTMKKNPVSIPHTVWYADDIRRGEREAADVLGLTLYELMLRAGEAAFQVCRSAYPDARHWLVLCGHGNNGGDGYVVARLAKAVGIEVTLLAQESDKPLPEEAALAREAWLNAGGEIHASNIVWPESVDLIVDALLGTGLRQAPRESISQLIDHANSHPAPIVAVDIPSGLLAETGATPGAVINADHTITFIALKPGLLTGKARDVTGQLHFDSLGLDSWLAGQETKIQRFSAEQLSHWLKPRRPTSHKGDHGRLVIIGGDHGTAGAIRMTGEAALRAGAGLVRVLTRSENIAPLLTARPELMVHELTMDSLTESLEWADVVVIGPGLGQQEWGKKALQKVENFRKPMLWDADALNLLAINPDKRHNRVITPHPGEAARLLGCSVAEIESDRLHCAKRLVQRYGGVAVLKGAGTVVAAHPDALGIIDAGNAGMASGGMGDVLSGIIGALLGQKLSPYDAACAGCVAHGAAADVLAARFGTRGMLATDLFSTLQRIVNPEVTDKNHDESSNSAP | 4.62 ± 0.52 | 3.2 ± 0.32 | 6.53 ± 1.6 | 10.1 ± 3.4 | 5.24 ± 0.42 | 4.91 ± 0.3 | 5.56 ± 0.66 | 4.42 ± 0.3 | 4.25 ± 0.34 | 8.83 ± 1.5 | 5.62 ± 0.14 | 11.3 ± 0.24
6 | MQFSKMHGLGNDFMVVDAVTQNVFFSPELIRRLADRHLGVGFDQLLVVEPPYDPELDFHYRIFNADGSEVAQCGNGARCFARFVRLKGLTNKRDIRVSTANGRMVLTVTDDDLVRVNMGEPNFEPSAVPFRANKAEKTYIMRAAEQTILCGVVSMGNPHCVIQVDDVDTAAVETLGPVLESHERFPERANIGFMQVVKREHIRLRVYERGAGETQACGSGACAAVAVGIQQGLLAEEVRVELPGGRLDIAWKGPGHPLYMTGPAVHVYDGFIHL [P0A6K1] | 6.48 ± 2.1 | 3.44 ± 0.073 | 5.92 ± 0.45 | 9.56 ± 0.77 | 6.36 ± 1.1 | 5.87 ± 0.47 | 5.47 ± 0.1 | 5.32 ± 0.55 | 5.53 ± 0.74 | 9.83 ± 0.98 | 5.42 ± 0.38 | 11.859 ± 0.004
7 | MSLNLVSEQLLAANGLKHQDLFAILGQLAERRLDYGDLYFQSSYHESWVLEDRIIKDGSYNIDQGVGVRAISGEKTGFAYADQISLLALEQSAQAARTIVRDSGDGKVQTLGAVEHSPLYTSVDPLQSMSREEKLDILRRVDKVAREADKRVQEVTASLSGVYELILVAATDGTLAADVRPLVRLSVSVLVEEDGKRERGASGGGGRFGYEFFLADLDGEVRADAWAKEAVRMALVNLSAVAAPAGTMPVVLGAGWPGVLLHEAVGHGLEGDFNRRGTSVFSGQVGELVASELCTVVDDGTMVDRRGSVAIDDEGTPGQYNVLIENGILKGYMQDKLNARLMGMTPTGNGRRESYAHLPMPRMTNTYMLPGKSTPQEIIESVEYGIYAPNFGGGQVDITSGKFVFSTSEAYLIENGKVTKPVKGATLIGSGIETMQQISMVGNDLKLDNGVGVCGKEGQSLPVGVGQPTLKVDNLTVGGTA [P0AGG8] | 3.75 ± 0.12 | 2.74 ± 0.14 | 5.14 ± 0.45 | 8.1 ± 0.85 | 5.22 ± 1.1 | 3.805 ± 0.0063 | 4.52 ± 0.13 | 3.73 ± 0.064 | 3.88 ± 0.13 | 6.45 ± 0.19 | 5.11 ± 0.16 | 11 ± 1.7
